Values quoted from earlier work in publication PMC9960319.

Biological target: intermediate-affinity IL-2 receptor (Homo sapiens) (UniProt P14784)
UniProt P14784, sequence (P14784 27-240, chain 1 of 2): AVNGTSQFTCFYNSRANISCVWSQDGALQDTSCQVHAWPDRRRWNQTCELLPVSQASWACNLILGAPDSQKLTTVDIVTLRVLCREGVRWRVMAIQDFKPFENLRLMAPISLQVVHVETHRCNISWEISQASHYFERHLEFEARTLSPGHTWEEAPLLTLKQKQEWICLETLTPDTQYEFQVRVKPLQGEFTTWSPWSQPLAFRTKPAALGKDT
UniProt P14784, sequence (P31785 23-262, chain 2 of 2, further chain): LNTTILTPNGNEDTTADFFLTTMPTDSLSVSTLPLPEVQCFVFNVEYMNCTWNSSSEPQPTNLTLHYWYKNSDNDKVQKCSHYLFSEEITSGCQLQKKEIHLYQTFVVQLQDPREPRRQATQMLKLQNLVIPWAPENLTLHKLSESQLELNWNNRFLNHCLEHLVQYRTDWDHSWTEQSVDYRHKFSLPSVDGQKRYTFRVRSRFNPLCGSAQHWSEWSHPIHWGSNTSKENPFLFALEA

Kd: 0.04 µM
Substance: IL-2 moiety (from UniProt P60568)
